Measurements as given in patent US11866731.
Several values for one entry are separate records, joined by “and”; a condition that tells them apart may be missing. Equal entries are not always repeated. Where two headings read alike, the source gives them in different places.

Assays:
[1] = target: CD19 (B cell surface protein) on B cells (UniProt P15391); assay: cell-based or functional assay
[2] = target: CD19 (B cell surface protein) on B cells (UniProt P15391); assay: cell-based or functional assay; remark: listed apart in the source

Chain of UniProt P15391 (P15391 20-556 limits assumed): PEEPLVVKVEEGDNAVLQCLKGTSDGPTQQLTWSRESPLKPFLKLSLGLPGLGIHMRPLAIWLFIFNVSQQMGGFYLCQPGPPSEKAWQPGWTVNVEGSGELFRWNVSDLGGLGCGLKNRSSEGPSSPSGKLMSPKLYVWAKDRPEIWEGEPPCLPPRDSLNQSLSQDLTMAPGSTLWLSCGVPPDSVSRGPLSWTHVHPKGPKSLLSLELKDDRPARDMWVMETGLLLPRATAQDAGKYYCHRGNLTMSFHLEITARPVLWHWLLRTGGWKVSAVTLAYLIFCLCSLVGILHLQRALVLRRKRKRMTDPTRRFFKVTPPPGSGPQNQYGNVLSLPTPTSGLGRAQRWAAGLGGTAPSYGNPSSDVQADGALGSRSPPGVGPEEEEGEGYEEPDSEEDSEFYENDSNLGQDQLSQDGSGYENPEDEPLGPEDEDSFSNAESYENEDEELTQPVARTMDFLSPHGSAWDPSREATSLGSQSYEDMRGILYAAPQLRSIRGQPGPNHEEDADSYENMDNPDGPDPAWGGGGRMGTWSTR

- Expansion of T cells (fold, after 4 days of co-culture with B cells and J82-NY-ESO-1-Luc cells) [1]: 12 fold and 27 fold
- Expansion of T cells (fold, after 96 hours of co-culture with tumor cells and B cells) [1]: 25 fold
- Expansion of T cells (fold, after 96 hours of co-culture with tumor cells and B cells) [2]: 23 fold
B1: chimeric antigen receptor targeting B cell surface protein (BCAR), CD19 CAR (protein, part only; not given: transmembrane and signaling domains, part only)
chain, part: DIVLTQSPASLAMSLQLGWRPGWFLDSPDRVIGAHLIHWYQQKPGQPPKLLIYLASNLETGVPARFSGSGSGTDFTLTIDPVEEDDVAIYSCLQSRIFPRTFGGGTKLEIKGGGGSGGGGSGGGGSQIQLVQSGPELKKPGETVKISCKASGYTFTDYSINWVKRAPGKGLKWMGWINTETREPAYAYDFRGRFAFSLETSASTAYLQINNLKYEDTATYFCALDYSYAMDYWGQGTSVTVSS
- Killing of J82-NY ESO1 tumor cells by BCAR-TCR T (RTCA Cell Index), with against without B cells [1]: 1000 times
